From patent publication US20050214890

Test system: GST-RFP-SPSS/FXa-GFP-His6 fluorescent fusion protein [GST: P08515]

coagulation factor Xa
SDS-PAGE and Western blot of substrate cleavage products (GST-RFP and GFP-His): demonstrated specific cleavage of the substrate by FXa, as the amounts of the native proteins decreased while the amounts of the two truncated products (GST-RFP and GFP-His) increased with increasing concentrations of FXa
